Holding throughout (test): ITC
Settings in all cases: both partners purified

Assay [1] deals with T1, GABARAPL1 (residues 1-117 of human GABARAPL1) (human, UniProt Q9H0R8 1-117).
T1 construct: also called GABARPL1

Assay [2] addresses T2, LC3B (residues 1-125 of human LC3B) (human, UniProt Q9GZQ8 1-125).
The target of assay [3] is T1, GABARAPL1 (residues 1-117 of human …). This is another data set of the same source.
Assay [4] addresses T2, LC3B (residues 1-125 of human LC3B). The source holds these as a separate data set.
In assay [5] the target is T3, GABARAP (residues 1-117 of human GABARAP) (human, UniProt O95166 1-117).
Assay [6] has as its target LC3A (residues 1-121 of human LC3A) (human, UniProt Q9H492 1-121).
For assay [7], the target named is T3, GABARAP (residues 1-117 of human …). This is another data set of the same source.

T3 sequence (O95166 whole entry, the tested form may be a part): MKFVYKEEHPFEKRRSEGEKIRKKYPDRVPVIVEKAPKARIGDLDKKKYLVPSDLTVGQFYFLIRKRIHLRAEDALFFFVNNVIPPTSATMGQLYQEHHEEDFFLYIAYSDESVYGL
T1 sequence (Q9H0R8 whole entry, the tested form may be a part): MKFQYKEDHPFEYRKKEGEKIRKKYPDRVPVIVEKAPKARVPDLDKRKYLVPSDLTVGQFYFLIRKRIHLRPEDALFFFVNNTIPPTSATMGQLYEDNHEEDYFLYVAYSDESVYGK

What is called Kd is the constant that tells how readily two partners part at equilibrium. Usually stoichiometry N stands for a count of units in the complex or per binding partner. As to DVEMESEEESDDDGFVEVD [NSs4 (residues 247-265 of RVFV NSs)], the dissociation constant Kd in assay [1] is 0.49 µM; in assay [2] it was 0.6 µM. The “stoichiometry N” value in assay [3] and in assay [4] was 1 throughout.
As for RLRFSDFYNVGEFPYRVGLG [NSs2 (residues 53-72 of RVFV NSs)], the Kd in assay [5] and in assay [6] was more than 100 µM each time.
For the molecule DYFPVISVDLQSGRR [NSs1 (residues 2-16 of RVFV NSs)], the dissociation constant (Kd) in assay [5] and in assay [6] was more than 100 µM in each case.
Turning to GRNNWIPVIPPIPDVEMESEEE [NSs3 (residues 234-255 of RVFV NSs)], the Kd is 16 µM in assay [7] and more than 100 µM in assay [6]. In assay [5], the “stoichiometry N” value was 1.

For the origin of these results see paper PMC10986958 (PLOS Pathogens, 2024).
